# Reference: the supplement of paper PMC12764529
# ± gives the half width of the 95% confidence interval.
# Columns and labels:
# [1] = folding stability dG unfold (combined trypsin and chymotrypsin); higher = more stable
# Procedure, shortened: (§1)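 Designed mini-proteins (under 80 residues, no cysteine) in a PA-tagged cDNA display construct were digested with trypsin and chymotrypsin. Each protease was used at 11 concentrations (threefold dilutions) plus a no-protease condition, followed by sequencing. K50 was inferred by Bayesian fitting of sequencing counts, and unfolding free energy was derived against a sequence-predicted unfolded-state K50 and a shared folded-state K50, per protease or combined. Only designs with AlphaFold2 dimer inter-PAE above 15 were kept.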
# [2] = folding stability dG unfold from trypsin proteolysis; higher = more stable
# Procedure, shortened: as §1
# [3] = folding stability dG unfold from chymotrypsin proteolysis; higher = more stable
# Procedure, shortened: as §1
Sequence,folding stability dG unfold [1],folding stability dG unfold [2],folding stability dG unfold [3]
SAGGSAGGSAGGIRIEFPGMKFEIDEFDPPNGVITLRFPENGQELQIKFDSDGEITKITWSAGGSAGGSAGG [r7_553_TrROS],2.25 ± 0.28 kcal/mol,2.05 ± 0.2 kcal/mol,1.94 ± 0.14 kcal/mol
SAGGSAGGSAGGIWITMRPDNPDEFIDALRKKGKIRIVEVEPKNGNVIMRVTLDGQPLTSAGGSAGGSAGGS [r10_695_TrROS],0.368 ± 0.088 kcal/mol,0.0442 ± 0.14 kcal/mol,0.53 ± 0.11 kcal/mol
SAGGSAGGSAGGKATLGEDGFLVIEREVELPDGPYRPETLVIPLPELTPEEVERLLETESAGGSAGGSAGGS [r10_1096_TrMRF],1.05 ± 0.096 kcal/mol,1.24 ± 0.13 kcal/mol,0.919 ± 0.044 kcal/mol
SAGGSAGGSAGGKDGYYKAIIELPGGEKREIVFKYEDFEEALKSLGIPLENVKIVKIEEGSAGGSAGGSAGG [r7_211_TrMRF],3.48 ± 0.18 kcal/mol,3.3 ± 0.2 kcal/mol,3.49 ± 0.11 kcal/mol
SAGGSAGGSAGGKEYKLVKVKVKVEITLPKGSELLKKLGLSEEDVKFEFELEVVVLVKPSAGGSAGGSAGGS [r10_82_TrROS_Hall],3.68 ± 0.23 kcal/mol,2.82 ± 0.21 kcal/mol,3.93 ± 0.074 kcal/mol
SAGGSAGGSAGGKIEIKTFPDGYVLAKIEFPDEDKALVILAKVKPNPGKVLEAIIRPADSAGGSAGGSAGGS [r10_613_TrMRF],1.38 ± 0.097 kcal/mol,1.2 ± 0.025 kcal/mol,1.51 ± 0.062 kcal/mol
SAGGSAGGSAGGKIENWKITKVETKLHPNGFPYLVIELSNEKKKIRVLIYPNGELKAFEESAGGSAGGSAGG [r7_675_TrMRF],3.82 ± 0.31 kcal/mol,2.8 ± 0.42 kcal/mol,4.07 ± 0.21 kcal/mol
SAGGSAGGSAGGKIIHPDLKKPLDVLEKFELIIGGKPYLFFLSRGEGELRLLVIPAGKESAGGSAGGSAGGS [r10_517_TrMRF],2.15 ± 0.048 kcal/mol,1.54 ± 0.021 kcal/mol,2.53 ± 0.055 kcal/mol
SAGGSAGGSAGGKIYYLDKDLFVIDLPDPKTGKPIKIAIGGDPNRPDEILKLAKELAESSAGGSAGGSAGGS [r10_379_TrMRF],-0.0301 ± 0.2 kcal/mol,0.0383 ± 0.039 kcal/mol,-0.398 ± 0.26 kcal/mol
SAGGSAGGSAGGKKIEIEFTVKILREPEPGELVPYEVKGKLEINIDPDGNLKIELKFEPGSAGGSAGGSAGG [r11_607_TrMRF],3.06 ± 0.15 kcal/mol,2.81 ± 0.11 kcal/mol,3.26 ± 0.073 kcal/mol
SAGGSAGGSAGGKKIIKVPLKNAEKIKKELKKKYKIKKVKIEKNKDGSKYIYIEVEKPKSAGGSAGGSAGGS [r10_1219_TrROS_Hall],1.5 ± 0.23 kcal/mol,0.939 ± 0.071 kcal/mol,1.69 ± 0.16 kcal/mol
SAGGSAGGSAGGKKIKIKINSPGNAEEVKKLLEPFGLEVDSIKENKNNPNLIIVEVNVESAGGSAGGSAGGS [r10_104_TrMRF],0.242 ± 0.11 kcal/mol,-0.276 ± 0.11 kcal/mol,0.563 ± 0.031 kcal/mol
SAGGSAGGSAGGKKIRFYFPNGNPVELTEILDVDPEDKWARIDVEHNGKKHKHPMPADDLSAGGSAGGSAGG [r7_236_TrROS],< -1 kcal/mol,-1.36 ± 0.68 kcal/mol,-1.19 ± 0.39 kcal/mol
SAGGSAGGSAGGKKIRIVVPKENLEKIEELAKKLGPDVKIVKVEYFKETDYVVVEVEVKSAGGSAGGSAGGS [r10_23_TrROS_Hall],2.11 ± 0.086 kcal/mol,2.16 ± 0.06 kcal/mol,1.98 ± 0.075 kcal/mol
SAGGSAGGSAGGKKKKVIEIELKPGEKLTLEQIKEIAKKLNVKKVKVEKVDGKLKIVVESAGGSAGGSAGGS [r10_642_TrROS_Hall],0.815 ± 0.16 kcal/mol,0.502 ± 0.057 kcal/mol,0.892 ± 0.065 kcal/mol
SAGGSAGGSAGGKKPKVKVIKLTLTVTKLTEKDGKLTLEKKTITLTAVIDPETGKIHLLSAGGSAGGSAGGS [r10_533_TrROS_Hall],3.5 ± 0.16 kcal/mol,3.2 ± 0.14 kcal/mol,3.5 ± 0.089 kcal/mol
SAGGSAGGSAGGKKPVKITEIHRNPGPNWIRIRIPGNGRPIPIPVPPGKKLTLEDALDFSAGGSAGGSAGGS [r10_844_TrROS],-0.304 ± 0.19 kcal/mol,-0.648 ± 0.38 kcal/mol,-0.0211 ± 0.29 kcal/mol
SAGGSAGGSAGGKKTITVPVKIEEVDGKFRITLPDGKVIEFPPGAKVEEKDGLLTIELESAGGSAGGSAGGS [r10_305_TrROS_Hall],1.14 ± 0.11 kcal/mol,0.932 ± 0.025 kcal/mol,1.13 ± 0.078 kcal/mol
